The text below walks through data of patent US20220380471A1.

Assay [1] deals with T1, rat B7H3-His (rat) (UniProt Q7TPB4).
T1 sequence (looked up): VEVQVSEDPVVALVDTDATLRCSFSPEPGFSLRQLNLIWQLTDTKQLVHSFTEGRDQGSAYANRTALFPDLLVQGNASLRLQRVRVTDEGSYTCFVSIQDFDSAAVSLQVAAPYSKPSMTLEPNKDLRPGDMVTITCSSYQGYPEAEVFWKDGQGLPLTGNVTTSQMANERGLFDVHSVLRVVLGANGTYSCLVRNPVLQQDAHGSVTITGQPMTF
Nature of the assay: ELISA; row Rat; well 2 of 3. On the technique in general: ELISA stands for enzyme-linked immunosorbent assay.

Assay [2] concerns the target T2, mouse B7H3-His (mouse) (UniProt Q8VE98).
T2 sequence (looked up): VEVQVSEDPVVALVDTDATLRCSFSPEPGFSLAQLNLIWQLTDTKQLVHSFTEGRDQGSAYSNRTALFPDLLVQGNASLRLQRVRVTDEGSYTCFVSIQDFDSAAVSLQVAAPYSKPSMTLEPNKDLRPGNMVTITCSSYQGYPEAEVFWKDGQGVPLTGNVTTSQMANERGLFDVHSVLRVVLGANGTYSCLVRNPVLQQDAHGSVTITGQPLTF
The experiment in a line: ELISA; row Mouse-1 (msB7H3); well 3 of 3.

Assay [3] concerns the target T1, rat B7H3-His (rat). The experiment in a line: ELISA; row Rat; well 1 of 3.
The target of assay [4] is T2, mouse B7H3-His (mouse). Nature of the assay: ELISA; row Mouse-2 (mB7H3); well 3 of 3.
Assay [5] has as its target T2, mouse B7H3-His (mouse). The experiment in a line: phage ELISA, cross-species.
In assay [6] the target is T1, rat B7H3-His (rat). The experiment in a line: phage ELISA, cross-species.
The target in assay [7] is T2, mouse B7H3-His (mouse). The experiment in a line: ELISA; row Mouse-2 (mB7H3); well 2 of 3.
Assay [8] has as its target T2, mouse B7H3-His (mouse). The experiment in a line: ELISA; row Mouse-2 (mB7H3); well 1 of 3.
Assay [9] deals with T1, rat B7H3-His (rat). The experiment in a line: ELISA, purified VHH.
Assay [10] concerns the target T2, mouse B7H3-His (mouse). The experiment in a line: ELISA; row Mouse-1 (msB7H3); well 1 of 3.
The target in assay [11] is T2, mouse B7H3-His (mouse). Nature of the assay: ELISA; row Mouse-1 (msB7H3); well 2 of 3.
Assay [12] addresses T1, rat B7H3-His (rat). Nature of the assay: ELISA; row Rat; well 3 of 3.

B1: RWC4 (VHH)
VHH: EVQLVESGGGSVQAGGSLRLSCVASEDSTSAMCMGWFRQAPGKEREGVACINPTGEVTWYGDSVKGRFTISRDTVKKIVYLQMNSLKPEDTAMYYCAARVTYGGDWSTDTDYEYWGQGTQVTVSS
As for B1, the ELISA reading (name not given) came to 0.0688 with rat B7H3-His (rat) [1]; 0.0488 with mouse B7H3-His (mouse) [2]; 0.0683 with rat B7H3-His (rat) [3]; 0.0468 with mouse B7H3-His (mouse) [4]; 0.0498 in the assay with mouse B7H3-His (mouse) [7]; 0.079 with mouse B7H3-His (mouse) [8]. In addition, the figures for the ELISA reading (name not given) in the assay with mouse B7H3-His (mouse) [10], with mouse B7H3-His (mouse) [11] and in the assay with rat B7H3-His (rat) [12] were 0.0616, 0.0533 and 0.0685, respectively. For the same molecule, the ELISA signal in the assay with mouse B7H3-His (mouse) [5] was determined as 0.366; with rat B7H3-His (rat) [6] it was 0.797; in the assay with rat B7H3-His (rat) [9], 0.158.

B2: RWB12 (VHH)
VHH: QVQLVESGGGSVQVGGSLRLSCAASGFTYNSYSVGWFRQAPGKEREGVAAINSGGSSTYYAASVKGRFTISRDNAKNTVYLQMNSLKPEDTAMYYCAARSPSPLTFQTRTLREDSYNYWGQGTQVTVSS
B2: the ELISA reading (name not given) in the assay with mouse B7H3-His (mouse) [2] came out at 0.0702; in the assay with mouse B7H3-His (mouse) [4] it was 0.0764; with mouse B7H3-His (mouse) [7] it was 0.0771; with mouse B7H3-His (mouse) [8] it was 0.0742; in the assay with mouse B7H3-His (mouse) [10], 0.0714; with mouse B7H3-His (mouse) [11] it was 0.0683. For the same molecule, the ELISA signal with mouse B7H3-His (mouse) [5] amounted to 1.71.
